Experimental data from patent US8574882B2, “Thermostable 1,5-anhydroglucitol dehydrogenase, and method for measurement of 1,5-anhydroglucitol by using the same” (Nippon Kayaku Kabushiki Kaisha, priority 2008, dated 2013).

B1: Ver. 0: recombinant parent strain (Pseudomonas sp. NK-85001)-derived 1,5-AG dehydrogenase, SEQ ID NO: 4, no thermostability (protein)
chain: MEFGGQPDIVIIGSGIGGASIAAGLSASGADILILEAGESLPDRPENRDPHAIFQRGFFRPKEFWYETDGTPFNPGNYYNVGGNSKFYGAVLVRYRREDFEELAHLEGVSPAWPFAYDELEPWYCKAEELFQVRGELGDDPTEPYHSKPYSYPAIRDESPIADLRARLKKAGLHPASLPLGVDIERWLAKAKTPWDAHPNSNDGKMDAETCPLALALKHPNVGLETSARVTKLETGPDGKTIVAVHYVKNGEALVLRPKLVILSAGAVQSAALLLRSGLANRSDQVGRNFMNHNASAVIGFDPRYRNDSVYQKTFGFNDYYLSDGAGGPPLGNVQLLGRVSGAILKSNMRQVPEWFLNRIAGHTIDFYAMSEDLPSPESRVSVDGDRIILHWVRSNWKAHLMLVDKLKSALRAAGFPVVLSRAFDRRTPSHQCGTVRIGDNPATAPLDPYCRAYDHPNLYVVDASFLPTSAAVNPALTIAAQALRVADHLNREVLA
modifications: Pseudomonas sp. NK-85001
B2: Ver. 3.2: thermostable 1,5-AG dehydrogenase, protein 17); net vs SEQ ID NO: 4: A37T, P50Q, L164M, G362R (protein)
chain: MEFGGQPDIVIIGSGIGGASIAAGLSASGADILILETGESLPDRPENRDQHAIFQRGFFRPKEFWYETDGTPFNPGNYYNVGGNSKFYGAVLVRYRREDFEELAHLEGVSPAWPFAYDELEPWYCKAEELFQVRGELGDDPTEPYHSKPYSYPAIRDESPIADMRARLKKAGLHPASLPLGVDIERWLAKAKTPWDAHPNSNDGKMDAETCPLALALKHPNVGLETSARVTKLETGPDGKTIVAVHYVKNGEALVLRPKLVILSAGAVQSAALLLRSGLANRSDQVGRNFMNHNASAVIGFDPRYRNDSVYQKTFGFNDYYLSDGAGGPPLGNVQLLGRVSGAILKSNMRQVPEWFLNRIARHTIDFYAMSEDLPSPESRVSVDGDRIILHWVRSNWKAHLMLVDKLKSALRAAGFPVVLSRAFDRRTPSHQCGTVRIGDNPATAPLDPYCRAYDHPNLYVVDASFLPTSAAVNPALTIAAQALRVADHLNREVLA
modifications: Pseudomonas sp. NK-85001
B3: Ver. 11.1: thermostable 1,5-AG dehydrogenase; SEQ ID NO: 1 having an arginine residue in place of proline at position 156 (protein)
chain: MEFAGQPDIVIIGTGIGGASIAAGLSASGADILILERGESLPDRPENRDQHAIFQRGFFRPKEFWYGTDGTPFNPGNYYYVGGNSKFYGAVLMRYRREDFEELAHLEGVSPAWPFAYDELEPWYCKAEELFQVRGELGDDPTEPYHSKPYSYPAIRDESPIADMRARLKKAGLHPASLPLGVDIERWLAKAKTPWDAHPNSDDGKMDAETCPLALALKHPNVGLETSARVTKLEAGPDGKTIVAVHYVKNGEALVLRPKLVILSAGAVQSAALLLRSGLANRSDQVGRNFMNHNASAVIGFDPRYRNDSVYQKTFGFNDYYLSDGAGGPPLGNVQLLGRVSGAILKSYMRQVPEWFLNRIARHTIDFYAMSEDLPSPESRVSVDGDRIILHWVRSNWKAHLMLVDKLKSALRAAGFPVVLSRAFDRRTPSHQCGTVRIGDNPATAPLDPYCRAYDHPNLYVVDASFLPTSAAANPALTIAAQALRVADHLNREVLA
modifications: Protein expressed by mutated 1,5-anhydroglucitol dehydrogenase gene
B4: Ver. 12.0: thermostable 1,5-AG dehydrogenase comprising the amino acid sequence represented by SEQ ID NO: 1 (protein)
chain: MEFAGQPDIVIIGTGIGGASIAAGLSASGADILILERGESLPDRPENRDQHAIFQRGFFRPKEFWYGTDGTPFNPGNYYYVGGNSKFYGAVLMRYRREDFEELAHLEGVSPAWPFAYDELEPWYCKAEELFQVRGELGDDPTEPYHSKPYSYPAIPDESPIADMRARLKKAGLHPASLPLGVDIERWLAKAKTPWDAHPNSDDGKMDAETCPLALALKHPNVGLETSARVTKLEAGPDGKTIVAVHYVKNGEALVLRPKLVILSAGAVQSAALLLRSGLANRSDQVGRNFMNHNASAVIGFDPRYRNDSVYQKTFGFNDYYLSDGAGGPPLGNVQLLGRVSGAILKSYMRQVPEWFLNRIARHTIDFYAMSEDLPSPESRVSVDGDRIILHWVRSNWKAHLMLVDKLKSALRAAGFPVVLSRAFDRRTPSHQCGTVRIGDNPATAPLDPYCRAYDHPNLYVVDASFLPTSAAANPALTIAAQALRVADHLNREVLA
modifications: Protein expressed by mutated 1,5-anhydroglucitol dehydrogenase gene
B5: Ver. 7.1: thermostable 1,5-AG dehydrogenase, SEQ ID NO: 23; Ver. 7.0 plus G4A (protein)
chain: MEFAGQPDIVIIGTGIGGASIAAGLSASGADILILETGESLPDRPENRDQHAIFQRGFFRPKEFWYETDGTPFNPGNYYNVGGNSKFYGAVLMRYRREDFEELAHLEGVSPAWPFAYDELEPWYCKAEELFQVRGELGDDPTEPYHSKPYSYPAIRDESPIADMRARLKKAGLHPASLPLGVDIERWLAKAKTPWDAHPNSNDGKMDAETCPLALALKHPNVGLETSARVTKLEAGPDGKTIVAVHYVKNGEALVLRPKLVILSAGAVQSAALLLRSGLANRSDQVGRNFMNHNASAVIGFDPRYRNDSVYQKTFGFNDYYLSDGAGGPPLGNVQLLGRVSGAILKSYMRQVPEWFLNRIARHTIDFYAMSEDLPSPESRVSVDGDRIILHWVRSNWKAHLMLVDKLKSALRAAGFPVVLSRAFDRRTPSHQCGTVRIGDNPATAPLDPYCRAYDHPNLYVVDASFLPTSAAVNPALTIAAQALRVADHLNREVLA
modifications: Mutated 1,5-anhydroglucitol dehydrogenase gene
notes: Ver; 7.0 plus G4A
B6: Ver. 11.0: thermostable 1,5-AG dehydrogenase; SEQ ID NO: 1 having arginine at position 156 and valine at position 473 (protein)
chain: MEFAGQPDIVIIGTGIGGASIAAGLSASGADILILERGESLPDRPENRDQHAIFQRGFFRPKEFWYGTDGTPFNPGNYYYVGGNSKFYGAVLMRYRREDFEELAHLEGVSPAWPFAYDELEPWYCKAEELFQVRGELGDDPTEPYHSKPYSYPAIRDESPIADMRARLKKAGLHPASLPLGVDIERWLAKAKTPWDAHPNSDDGKMDAETCPLALALKHPNVGLETSARVTKLEAGPDGKTIVAVHYVKNGEALVLRPKLVILSAGAVQSAALLLRSGLANRSDQVGRNFMNHNASAVIGFDPRYRNDSVYQKTFGFNDYYLSDGAGGPPLGNVQLLGRVSGAILKSYMRQVPEWFLNRIARHTIDFYAMSEDLPSPESRVSVDGDRIILHWVRSNWKAHLMLVDKLKSALRAAGFPVVLSRAFDRRTPSHQCGTVRIGDNPATAPLDPYCRAYDHPNLYVVDASFLPTSAAVNPALTIAAQALRVADHLNREVLA
modifications: Protein expressed by mutated 1,5-anhydroglucitol dehydrogenase gene

Tests used:
[1] = 1,5-AG dehydrogenase activity determination of crude enzyme solution (L-sorbose, DCIP, 1-m-PMS, decrease in absorbance at 600 nm); format: biochemical; conditions: L-sorbose as substrate, 37° C.; for Specific activity: crude enzyme solution
Description: The E. coli JM109 strains transformed with the pTrc-PS15DH vectors confirmed in the paragraph (I) to have the insert fragment were inoculated to 3 mL of an LB medium containing 100 μg/mL ampicillin and cultured at 28° C. for 14 hours. Of this culture solution, a 0.2 mL aliquot was inoculated to 10 mL of an LB medium (containing 100 μg/mL ampicillin). Approximately 3 hours later, the rise of OD600 of the culture solution to 0.4 to 0.7 was confirmed, and 1,5-AG dehydrogenase expression in E. coli was then induced by the addition of 0.1 M IPTG (final concentration: 0.1 mM) to the medium. This culture solution was further cultured overnight at 28° C. and centrifuged at 10000×g for 5 minutes to precipitate cells. The supernatant was removed, and the pellet was then washed twice with a 0.85% aqueous NaCl solution. Cells were precipitated by centrifugation. Then, the microbial cells were suspended in 1 mL of a 50 mM sodium phosphate buffer, pH 7.5. Triton X-100 was added thereto at a concentration of 0.25%, and the microbial cells were disrupted using a bead impact-type cell disrupter MINI-BEAD BEATER (30 seconds×4, manufactured by Central Scientific Commerce, Inc.) while cooled in ice. After centrifugation at 20000×g for 10 minutes, the supernatant was examined as a crude enzyme solution for its 1,5-AG dehydrogenase activity. The composition of the reaction solution is as described below. Since the 1,5-AG dehydrogenase also reacts with L-sorbose as its substrate, L-sorbose was used for convenience instead of 1,5-AG in the enzymatic activity determination.
Composition of Reaction Solution:
The components other than the crude enzyme solution are mixed and kept at 37° C. for 10 minutes. Then, the crude enzyme solution is added to the reaction solution to initiate reaction. Decrease in absorbance at 600 nm for 1 minute with the temperature kept at 37° C. is determined.
The enzymatic activity can be determined according to the following equation: Enzymatic activity (U/mL)=(Δ600/min×0.6 (mL)×dilution ratio of crude enzyme solution)/(16.3×0.01 (mL)).
(§1) The E. coli JM109 containing the gene encoding each thermostable 1,5-AG dehydrogenase obtained in the paragraphs to [4] of EXAMPLE 2 was transplanted to 10 mL of an LB liquid medium containing 50 μg/mL ampicillin and 0.1 mM IPTG and shake-cultured at 30° C. for 16 hours. 10 mL of the shake-culture solution was centrifuged at 10000 rpm for 5 minutes. The culture supernatant was removed, and the pellet was then washed twice with a 0.85% aqueous NaCl solution. These microbial cells were suspended in 1 mL of a 50 mM sodium phosphate buffer (pH 7.5) containing 0.25% Triton X-100. The microbial cells were disrupted using a bead impact-type cell disrupter MINI-BEAD BEATER (30 seconds×4, manufactured by Central Scientific Commerce, Inc.) while cooled in ice. After centrifugation at 15000 rpm for 10 minutes, the supernatant was used as a crude enzyme solution. When the crude enzyme solution was heat-treated, the treatment was performed for 10 minutes in a water bath of 45° C., 50° C., 55° C. or 60° C.
(§2) The enzymatic activity of the 1,5-AG dehydrogenase was calculated by measurement by the same approach as that described in the paragraph (J) of EXAMPLE 1.
(§3) A specific activity that represents the enzymatic activity of the 1,5-AG dehydrogenase per mg of the crude enzyme solution was calculated according to the following equation: Specific activity (U/mg)=enzymatic activity (U/mL)/protein concentration of crude enzyme solution (mg/mL). Moreover, the rate of residual activity was calculated according to the following equation: Rate of residual activity (%)=(specific activity of crude enzyme solution after heat treatment/specific activity of crude enzyme solution before heat treatment)×100.
The 1,5-AG dehydrogenase activity was determined based on the method described in EXAMPLE 1, and its specific activity was determined according to the equation described in EXAMPLE 3.

[2] = Stability of thermostable 1,5-AG dehydrogenase at heat treatment temperature (rate of residual activity); format: physicochemical; conditions: for Rate of residual activity after 10-minute treatment at 45° C. / Rate of residual activity after 10-minute treatment at 50° C. / Rate of residual activity after 10-minute treatment at 60° C. / Rate of residual activity after 10-minute treatment at 55° C.: crude enzyme solution, 10 minutes; for Rate of residual activity after 10-minute treatment at 45° C.: water bath 45° C.; for Rate of residual activity after 10-minute treatment at 50° C.: water bath 50° C.; for Rate of residual activity after 10-minute treatment at 60° C.: water bath 60° C.; for Rate of residual activity after 10-minute treatment at 55° C.: water bath 55° C.
Description: as §1, §2, §3

Row | Molecule | Enzymatic activity of the crude enzyme solution ([1]; E. coli JM109 / pTrc-PS15DH) [U/mL] | Specific activity [1] [U/mg] | Rate of residual activity after 10-minute treatment at 45° C. [2] [%] | Thermostability compared with the version(s) it was prepared from ([2]; Ver. 4.0 vs Ver. 3.2, Ver. 3.2 vs Ver. 3.0 and Ver. 3.1) | Rate of residual activity after 10-minute treatment at 50° C. [2] [%] | Rate of residual activity after 10-minute treatment at 60° C. [2] [%] | Rate of residual activity after 10-minute treatment at 55° C. [2] [%]
1 | B1 | 4.4 | 1.2 | 3.0 | – | – | – | –
2 | B2 | – | 2.0 | 68.0 | improved thermostability | 14.0 | – | –
3 | B3 | – | 0.8 | – | – | – | 73 | –
4 | B4 | – | 1.2 | – | – | – | 76 | –
5 | B5 | – | 2.8 | 89.0 | – | 61.0 | – | 10.0
6 | B6 | – | 3.4 | 97.0 | – | 97.0 | – | 81.0
